Target: T1, CstF77 (human), Q12996
T1 chain: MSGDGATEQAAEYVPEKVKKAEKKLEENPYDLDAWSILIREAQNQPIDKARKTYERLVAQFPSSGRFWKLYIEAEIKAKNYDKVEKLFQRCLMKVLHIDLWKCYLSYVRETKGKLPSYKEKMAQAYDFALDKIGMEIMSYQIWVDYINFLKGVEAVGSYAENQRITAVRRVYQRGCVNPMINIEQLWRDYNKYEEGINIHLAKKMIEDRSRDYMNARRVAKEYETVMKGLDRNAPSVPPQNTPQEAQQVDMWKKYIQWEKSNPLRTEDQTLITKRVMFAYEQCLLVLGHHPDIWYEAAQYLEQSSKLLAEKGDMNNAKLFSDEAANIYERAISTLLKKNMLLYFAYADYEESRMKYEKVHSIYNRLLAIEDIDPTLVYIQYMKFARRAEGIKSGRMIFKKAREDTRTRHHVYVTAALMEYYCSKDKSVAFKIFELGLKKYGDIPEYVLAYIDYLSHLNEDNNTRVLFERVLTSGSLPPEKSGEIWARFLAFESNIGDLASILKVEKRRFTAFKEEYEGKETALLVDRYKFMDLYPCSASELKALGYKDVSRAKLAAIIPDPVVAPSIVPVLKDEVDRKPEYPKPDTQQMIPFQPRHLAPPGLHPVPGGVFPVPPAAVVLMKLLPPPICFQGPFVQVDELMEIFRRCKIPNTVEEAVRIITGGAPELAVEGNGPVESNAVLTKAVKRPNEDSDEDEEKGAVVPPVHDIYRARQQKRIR
Assay: cryo-EM structure
Details: remark: other sources report otherwise

- stoichiometry N: 2
B1: CstF77, Q12996 1-717 (natural protein)
chain: MSGDGATEQAAEYVPEKVKKAEKKLEENPYDLDAWSILIREAQNQPIDKARKTYERLVAQFPSSGRFWKLYIEAEIKAKNYDKVEKLFQRCLMKVLHIDLWKCYLSYVRETKGKLPSYKEKMAQAYDFALDKIGMEIMSYQIWVDYINFLKGVEAVGSYAENQRITAVRRVYQRGCVNPMINIEQLWRDYNKYEEGINIHLAKKMIEDRSRDYMNARRVAKEYETVMKGLDRNAPSVPPQNTPQEAQQVDMWKKYIQWEKSNPLRTEDQTLITKRVMFAYEQCLLVLGHHPDIWYEAAQYLEQSSKLLAEKGDMNNAKLFSDEAANIYERAISTLLKKNMLLYFAYADYEESRMKYEKVHSIYNRLLAIEDIDPTLVYIQYMKFARRAEGIKSGRMIFKKAREDTRTRHHVYVTAALMEYYCSKDKSVAFKIFELGLKKYGDIPEYVLAYIDYLSHLNEDNNTRVLFERVLTSGSLPPEKSGEIWARFLAFESNIGDLASILKVEKRRFTAFKEEYEGKETALLVDRYKFMDLYPCSASELKALGYKDVSRAKLAAIIPDPVVAPSIVPVLKDEVDRKPEYPKPDTQQMIPFQPRHLAPPGLHPVPGGVFPVPPAAVVLMKLLPPPICFQGPFVQVDELMEIFRRCKIPNTVEEAVRIITGGAPELAVEGNGPVESNAVLTKAVKRPNEDSDEDEEKGAVVPPVHDIYRARQQKRIR

— PMC7036032
